The Tm is the temperature at which the thermal transition is half complete.

“And” between values parts separate entries of the source, which are not always exact repeats. Equal entries are not always repeated.

Here are results for one protein from FireProtDB (doi:10.1006/jmbi.1999.2582).

The conditions of the data set: Myxococcus xanthus, Mops-NaOH 25 mM, CaCl2 3 mM, transition: 3, reversible: Yes, whole UniProt chain shown.

B1: Development-specific protein S wild type, P02966 (protein)
chain: MANITVFYNEDFQGKQVDLPPGNYTRAQLAALGIENNTISSVKVPPGVKAILYQNDGFAGDQIEVVANAEELGPLNNNVSSIRVISVPVQPRARFFYKEQFDGKEVDLPPGQYTQAELERYGIDNNTISSVKPQGLAVVLFKNDNFSGDTLPVNSDAPTLGAMNNNTSSIRIS
Consider B1, for which, for the setting “pH 2, 20 °C, Urea, Absorbance”, the denaturant m value was found to be 2.87 kcal/mol/M, the “denaturant midpoint (higher = more stable)” value is 2.2 M and the unfolding free energy is 6.21 kcal/mol. Under “pH 2, Thermal, CD”, the Tm came out at 52 °C. Also, where the note is “pH 7, 20 °C, Urea, Absorbance”, the denaturant m value was 1.2 kcal/mol/M and 1.43 kcal/mol/M and 1.91 kcal/mol/M; the unfolding free energy is 5.02 kcal/mol and 7.41 kcal/mol and 3.59 kcal/mol.
